Laboratory results as given in patent US20210292422A1 (published 2021).

T1: LRP6E3E4 (UniProt O75581 631-1246)
T1 chain: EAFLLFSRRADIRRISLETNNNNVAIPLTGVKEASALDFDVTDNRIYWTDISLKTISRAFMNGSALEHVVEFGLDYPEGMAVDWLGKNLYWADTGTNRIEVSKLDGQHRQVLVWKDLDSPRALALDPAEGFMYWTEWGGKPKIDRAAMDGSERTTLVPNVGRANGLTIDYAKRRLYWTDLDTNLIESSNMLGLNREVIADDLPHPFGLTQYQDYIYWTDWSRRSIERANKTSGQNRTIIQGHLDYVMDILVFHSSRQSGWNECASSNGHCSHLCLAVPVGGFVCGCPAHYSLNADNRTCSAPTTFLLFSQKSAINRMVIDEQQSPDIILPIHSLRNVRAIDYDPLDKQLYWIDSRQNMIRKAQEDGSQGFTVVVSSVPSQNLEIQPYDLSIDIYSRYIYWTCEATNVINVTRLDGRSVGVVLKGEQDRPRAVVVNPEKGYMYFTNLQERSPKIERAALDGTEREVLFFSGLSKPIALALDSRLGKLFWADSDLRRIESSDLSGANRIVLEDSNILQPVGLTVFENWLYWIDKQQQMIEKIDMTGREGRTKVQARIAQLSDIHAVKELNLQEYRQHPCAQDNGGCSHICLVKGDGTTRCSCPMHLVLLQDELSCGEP


Biological target: T1, LRP6E3E4
Assay: BLI (Octet)

Kd [pM] | Binder
500 | L2:5:αGFP:Fc (bispecific antibody) EVQLVESGGGLVQPGGSLRLSCAASGFTFTSYYISWVRQAPGKGLEWVAEISPYSGSTYYADSVKGRFTISADTSKNTAYLQMNSLRAEDTAVYYCALRARPPIRLHPRGSVMDYWGQGTLVTVSSGSAASGSSGGSSSGADIQMTQSPSSLSASVGDRVTITCRASQDVSTAVAWYQQKPGKAPKLLIYSASFLYSGVPSRFSGSGSGTDFTLTISSLQPEDFATYYCQQSYTTPPTFGQGTKVEIKGSGSGQVQLVESGGGLVQPGGSLRLSCAASGFTFSRYGMHWVRQAPGKGLEWVSGISSIGSNTYYADSVKGRFTISRDNSKNTLYLQMNSLRAEDTAVYYCARWYKTYIDVWGQGTLVTVSSGGGGSGGGGSGGGGSDIELTQPPSVSVAPGQTARISCSGDNLGKKYVYWYQQKPGQAPVLVIYGDDERPSGIPERFSGSNSGNTATLTISGTQAEDEADYYCASYDSSHILIVFGGGTKLTVLGSGSGDKTHTCPPCPAPEAAGGPSVFLFPPKPKDTLMISRTPEVTCVVVDVSHEDPEVKFNWYVDGVEVHNAKTKPREEQYNSTYRVVSVLTVLHQDWLNGKEYKCKVSNKALGAPIEKTISKAKGQPREPQVYTLPPSREEMTKNQVSLTCLVKGFYPSDIAVEWESNGQPENNYKTTPPVLDSDGSFFLYSKLTVDKSRWQQGNVFSCSVMHEALHNHYTQKSLSLSPGK
800 | αGFP:5:L2:Fc (bispecific antibody) QVQLVESGGGLVQPGGSLRLSCAASGFTFSRYGMHWVRQAPGKGLEWVSGISSIGSNTYYADSVKGRFTISRDNSKNTLYLQMNSLRAEDTAVYYCARWYKTYIDVWGQGTLVTVSSGGGGSGGGGSGGGGSDIELTQPPSVSVAPGQTARISCSGDNLGKKYVYWYQQKPGQAPVLVIYGDDERPSGIPERFSGSNSGNTATLTISGTQAEDEADYYCASYDSSHILIVFGGGTKLTVLGSGSGEVQLVESGGGLVQPGGSLRLSCAASGFTFTSYYISWVRQAPGKGLEWVAEISPYSGSTYYADSVKGRFTISADTSKNTAYLQMNSLRAEDTAVYYCALRARPPIRLHPRGSVMDYWGQGTLVTVSSGSAASGSSGGSSSGADIQMTQSPSSLSASVGDRVTITCRASQDVSTAVAWYQQKPGKAPKLLIYSASFLYSGVPSRFSGSGSGTDFTLTISSLQPEDFATYYCQQSYTTPPTFGQGTKVEIKGSGSGDKTHTCPPCPAPEAAGGPSVFLFPPKPKDTLMISRTPEVTCVVVDVSHEDPEVKFNWYVDGVEVHNAKTKPREEQYNSTYRVVSVLTVLHQDWLNGKEYKCKVSNKALGAPIEKTISKAKGQPREPQVYTLPPSREEMTKNQVSLTCLVKGFYPSDIAVEWESNGQPENNYKTTPPVLDSDGSFFLYSKLTVDKSRWQQGNVFSCSVMHEALHNHYTQKSLSLSPGK
